Laboratory results from article PMC6464244, “The fungal ribonuclease-like effector protein CSEP0064/BEC1054 represses plant immunity and interferes with degradation of host ribosomal RNA”.

Experiments:
CSEP0064/BEC1054 [1] = target: T1, CSEP0064/BEC1054 (Blumeria graminis, UniProt N1JJ94 22-118); assay: MST; up to 1 mM; no curve could be fitted; MST: 20 mM Tris pH 7.4, 150 mM NaCl, 0.05% Tween, 50 nM labelled protein; NMR: 50 uM protein, 50 mM Tris, 150 mM NaCl, 308 K; settings: protein: recombinant; tags: Trx-His6 removed by TEV; NT-647 NHS amine label for MST; 15N for NMR; single strand
T1 sequence: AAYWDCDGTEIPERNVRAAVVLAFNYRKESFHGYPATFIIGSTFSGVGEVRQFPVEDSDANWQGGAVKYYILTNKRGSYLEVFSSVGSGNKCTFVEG

CSEP0064/BEC1054 [2] = target: T1, CSEP0064/BEC1054; assay: NMR 1H-15N HSQC titration; fast exchange; small CSPs, saturation at ~50 molar equivalents; binding observed; settings: protein: recombinant; tags: Trx-His6 removed by TEV; NT-647 NHS amine label for MST; 15N for NMR; hairpin (predicted same fold as SRL RNA)
CSEP0064/BEC1054 [3] = target: T1, CSEP0064/BEC1054; assay: NMR 1H-15N HSQC titration; 8 mole equivalents; discrete CSPs, weak; settings: protein: recombinant; tags: Trx-His6 removed by TEV; NT-647 NHS amine label for MST; 15N for NMR; hairpin (SRL fold)

B1: bacteriophage T7 promoter RNA (non-rRNA control) (ssRNA)
RNA: AAUUUAAUACGACUCACUAUAGG
CSEP0064/BEC1054 [1]
  binding result: no binding

B2: SRL DNA oligonucleotide (structured_DNA)
DNA: ACCTGCTCAGTACGAGAGGAACCGCAGGT
modifications: DNA version of SRL RNA
CSEP0064/BEC1054 [2]
  Kd: > 10 µM

B3: SRL RNA (barley 28S rRNA sarcin-ricin loop) (structured_RNA)
RNA: ACCUGCUCAGUACGAGAGGAACCGCAGGU
CSEP0064/BEC1054 [3]
  binding result: binds
